In test [1] the target is JF646-labeled Mcm2-7 (MCM) hexamer on DNA after incubation with ORC, Cdc6 and ATP (S. cerevisiae) (UniProt P29469). In words: single-molecule fluorescence colocalisation on optically trapped DNA (confocal microscopy, bleaching-step counting); bulk incubation of 5 nM ORC, 10 nM Cdc6, 100 nM MCM-Cdt1 with 1 nM 21.2 kbp DNA in 5 mM ATP for 30 min at 30°C, diluted 1000x, injected into the flow cell and imaged, no high-salt wash; all proteins on DNA.

For test [2] the target is unchanged. Put plainly: single-molecule fluorescence colocalisation on optically trapped DNA (confocal microscopy, bleaching-step counting); bulk incubation of 5 nM ORC, 10 nM Cdc6, 100 nM MCM-Cdt1 with 1 nM 21.2 kbp DNA in 5 mM ATP for 30 min at 30°C, then high-salt wash (500 mM NaCl) in the flow cell before imaging; MCM hexamer with MCM hexamer (double hexamer) on DNA.

Regarding “JF646-labeled Mcm2-7 (MCM) hexamer on DNA after incubation with ORC, Cdc6 and ATP, P29469 1-868; P24279 1-971; P30665 1-933; P29496 1-775; P53091 1-1017; P38132 1-845”, the percent of MCM-only foci with two or more MCMs in test [1] was 52%. Further, in test [2], the percent of foci with 2 MCM after high-salt wash stood at 24% and the stoichiometry N is 2.

For the origin of these results see paper PMC7998030.
